Test results: paper PMC10621992

Target: TBK1 (UniProt Q9UHD2)
Assay: co-immunoprecipitation, immunoblot
Details: reference: wild-type IRF3 + TBK1 + BLK; sites Y107

In the case of “IRF3 (from UniProt Q14653) IRF3(Y107F) + TBK1 + BLK”, the “binding against the reference” value is reported as “weaker”.
